Results taken from patent publication US20150284465A1 (Chugai, published 2015).
One block for each binder: values may come before it.

What was measured:
[1] = target: T1, SR344 (N-terminal 1st to 344th amino acids of soluble human IL-6R) (human, UniProt P08887 20-344, limits assumed); assay: SPR (Biacore T100), Protein A/G capture, SR344 at 0, 0.36 and 1.4 µg/ml, 15 min dissociation, 37 C
T1 construct: also called recombinant soluble IL-6 receptor; soluble human IL-6 receptor
T1 sequence (looked up): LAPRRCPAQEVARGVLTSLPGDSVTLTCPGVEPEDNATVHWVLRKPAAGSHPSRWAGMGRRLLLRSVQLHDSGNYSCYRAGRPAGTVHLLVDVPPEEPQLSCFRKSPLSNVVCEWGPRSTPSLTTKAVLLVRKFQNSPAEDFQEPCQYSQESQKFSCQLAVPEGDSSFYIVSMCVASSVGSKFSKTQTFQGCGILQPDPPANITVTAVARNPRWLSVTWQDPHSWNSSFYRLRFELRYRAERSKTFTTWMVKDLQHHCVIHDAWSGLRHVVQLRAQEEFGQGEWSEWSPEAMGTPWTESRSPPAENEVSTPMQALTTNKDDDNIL

[2] = target: T1, SR344 (N-terminal 1st to 344th amino …); assay: SPR (Biacore T100), Protein A/G capture, SR344 as analyte, 37 C
[3] = target: T1, SR344 (N-terminal 1st to 344th amino …); assay: cell-based or functional assay
[4] = target: T1, SR344 (N-terminal 1st to 344th amino …); assay: SPR (Biacore T100), antibody captured on Protein A/G, antigen as analyte, 37 C
Procedure: (§1) A sensor chip was prepared by immobilizing about 3,000 RU of Protein A/G onto CM5 (Biacore) with the amine coupling method. […] The running buffer used was HBS-EP+, and the flow rate was 20 μl/min. Each antibody was prepared so that about 100 RU of the antibody was bound to Protein A/G. For the analyte, rhIL-6sR was prepared at 0, 0.156, 0.313, and 0.625 μg/ml using HBS-EP+, while SR344 was adjusted to 0, 0.0654, 0.131, and 0.261 μg/ml. […] After three minutes of interaction, the solution was switched with HBS-EP+ (Biacore), and the dissociation phase was monitored for ten minutes. After measurement of the dissociation phase, the sensor chip was regenerated by washing with 10 μl of 10 mM glycine-HCl (pH 1.5). The association, dissociation, and regeneration constituted one analytic cycle. All experiments were carried out at 37° C.
(§2) The obtained sensorgrams were kinetically analyzed using Biacore T100 Evaluation Software, which is a data analysis software specific for Biacore (Table 3). […] All measurements described hereinafter in the Examples were carried out at 37° C. to kinetically analyze the antigen-antibody reaction using SR344 and protein A/G.

[5] = target: T2, recombinant human IL-6R sR (R&D systems) (human, UniProt P08887 20-358); assay: as above
T2 construct: Bought soluble receptor; also called rhIL-6sR; rhIL-s6R
T2 sequence (looked up): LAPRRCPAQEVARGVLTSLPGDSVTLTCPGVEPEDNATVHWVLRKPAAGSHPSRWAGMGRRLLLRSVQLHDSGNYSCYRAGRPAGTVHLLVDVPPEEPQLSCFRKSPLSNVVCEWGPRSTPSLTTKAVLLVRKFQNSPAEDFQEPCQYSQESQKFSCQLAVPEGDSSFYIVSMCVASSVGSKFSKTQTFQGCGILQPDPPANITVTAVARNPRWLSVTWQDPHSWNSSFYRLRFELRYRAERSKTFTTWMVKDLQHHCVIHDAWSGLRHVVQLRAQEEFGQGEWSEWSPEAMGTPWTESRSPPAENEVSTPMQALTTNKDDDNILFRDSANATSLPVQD
Procedure: as §1, §2

[6] = target: T1, SR344 (N-terminal 1st to 344th amino …); assay: SPR (Biacore T100), antibody captured on Protein A/G, SR344 as analyte, 37 C
Procedure: This measurement was carried out under the same conditions described in Example 2. The running buffer used was HBS-EP+, and the flow rate was 20 μl/min. Each antibody was prepared so that about 100 RU of the antibody was bound to Protein A/G. SR344 was prepared at 0, 0.065, 0.131, and 0.261 μg/ml using HBS-EP+ and used as an analyte. In the first step of the measurement, the antibody in solution was bound to Protein A/G, and the analyte solution was allowed to interact therewith. After three minutes of interaction, the solution was switched to HBS-EP+, and the dissociation phase was monitored for 10 or 15 minutes. After measurement of the dissociation phase, the sensor chip was regenerated by washing with 10 μl of 10 mM glycine-HCl (pH 1.5). The association, dissociation, and regeneration constitute one analysis cycle. Each antibody was measured according to this cycle.
The sensorgram was kinetically analyzed using the Biacore-specific data analysis software, Biacore T100 Evaluation Software.

[7] = target: T2, recombinant human IL-6R sR (R&D systems); assay: SPR (Biacore T100), antibody captured on Protein A, rhIL-6sR as analyte, 25 C
Procedure: The antigen-antibody interaction was measured by immobilizing 4,400 to 5,000 RU of rec-Protein A (Zymed) immobilized onto a sensor chip by the amine coupling method, binding various antibodies onto the chip, and then flowing the antigen over the chip as an analyte. For the antigen, various concentrations of rhIL-6sR were used. All measurements were carried out at 25° C. The kinetic parameters, association rate constant kₐ (1/Ms) and dissociation rate constant kd (1/s) were calculated from the sensorgrams obtained by measurement. Then, KD (M) was determined based on the rate constants. The respective parameters were determined using Biacore T100 Evaluation Software (Biacore).

[8] = target: T1, SR344 (N-terminal 1st to 344th amino …); assay: SPR (Biacore T100), antibody captured on Protein A/G, antigen as analyte, 37 C; remark: listed apart in the source
Procedure: (§3) The antigen-antibody interaction was measured by immobilizing purified Recomb Protein A/G (Pierce) (hereinafter “Protein A/G”) onto a sensor chip, binding various antibodies onto the chip, and then flowing the antigen as an analyte over the chip. Various concentrations of rhIL-6sR (R&D systems) and recombinant soluble IL-6 receptor (SR344 prepared in Example 1) were used as the antigen. The sugar chain structure of rhIL-6sR produced by baculovirus-infected insect cells is of high-mannose type. On the other hand, the sugar chain structure of SR344 produced by CHO cells is assumed to be of the complex sugar chain type with sialic acid at its end. Since the sugar chain structure of soluble IL-6 receptor in an actual human body is assumed to be of the complex sugar chain type with sialic acid at its end, SR344 is expected to have a structure closer to that of soluble IL-6 receptor in the human body. Thus, a comparison test between rhIL-6sR and SR344 was carried out in this experiment.
as §1

[9] = target: T2, recombinant human IL-6R sR (R&D systems); assay: as above; remark: listed apart in the source
Procedure: as §3, §1

Kd [1]: 0.052 nM
koff [1]: 4e-05 s⁻¹
kon [1]: 770000 M⁻¹ s⁻¹
ka relative to PF1-IgG1 [2]: ~0.5 fold
BaF3/gp130 neutralizing activity, 100% inhibitory concentration against WT [3]: ≥ 100 fold
B1: F2H/L39-IgG1 (antibody, V domains shown)
VH: QVQLQESGPGLVKPSETLSLTCAVSGYSISDDHAWSWVRQPPGEGLEWIGYISYSGITNYNPSLQDRVTISRDNSKNTLYLQMNSLRAEDTAVYYCARLLARATAMDYWGQGILVTVSS
VL: DIQMTQSPSSLSASVGDSVTITCQASEDISSYLNWYQQKPGKAPELLIYYGSELESGVPSRFSGSGSGTDFTFTISSLEAEDAATYYCGQGNRLPYTFGQGTKVEIER

fold improved affinity against WT [4]: 40 to 60 fold
fold improved affinity against WT [5]: 40 to 60 fold
Kd [6]: 0.067 nM
koff [6]: 4.3e-05 s⁻¹
kon [6]: 640000 M⁻¹ s⁻¹
Kd [7]: 0.025 nM
koff [7]: 3.1e-05 s⁻¹
kon [7]: 1.2e+06 M⁻¹ s⁻¹
BaF3/gp130 neutralizing activity, 100% inhibitory concentration against WT [3]: ~100 fold
Kd [8]: 0.067 nM
koff [8]: 4.3e-05 s⁻¹
kon [8]: 640000 M⁻¹ s⁻¹
Kd [9]: 0.028 nM
koff [9]: 4.5e-05 s⁻¹
kon [9]: 1.6e+06 M⁻¹ s⁻¹
B2: RDC-23 (antibody, V domains shown)
VH: QVQLQESGPGLVRPSQTLSLTCTVSGYSITSDHAWSWVRQPPGRGLEWIGYISYSGITTYNPSLKSRVTMLRDTSKNQFSLRLSSVTAADTAVYYCARVLARITAMDYWGQGSLVTVSS
VL: DIQMTQSPSSLSASVGDRVTITCRASQDISSYLNWYQQKPGKAPKLLIYYTSRLHSGVPSRFSGSGSGTDFTFTISSLQPEDIATYYCGQGNRLPYTFGQGTKVEIK
notes: also called RDC-5H/RDC-11L
